# Measured values: IntAct's records for PubMed 29789297
# B1: Protein FAM83H (Homo sapiens), Q6ZRV2 (parent)
# chain: MARRSQSSSQGDNPLAPGYLPPHYKEYYRLAVDALAEGGSEAYSRFLATEGAPDFLCPEELEHVSRHLRPPQYVTREPPEGSLLDVDMDGSSGTYWPVNSDQAVPELDLGWPLTFGFQGTEVTTLVQPPPPDSPSIKDEARRMIRSAQQVVAVVMDMFTDVDLLSEVLEAAARRVPVYILLDEMNAQHFLDMADKCRVNLQHVDFLRVRTVAGPTYYCRTGKSFKGHVKEKFLLVDCAVVMSGSYSFMWSFEKIHRSLAHVFQGELVSSFDEEFRILFAQSEPLVPSAAALARMDAYALAPYAGAGPLVGVPGVGAPTPFSFPKRAHLLFPPPREEGLGFPSFLDPDRHFLSAFRREEPPRMPGGALEPHAGLRPLSRRLEAEAGPAGELAGARGFFQARHLEMDAFKRHSFATEGAGAVENFAAARQVSRQTFLSHGDDFRFQTSHFHRDQLYQQQYQWDPQLTPARPQGLFEKLRGGRAGFADPDDFTLGAGPRFPELGPDGHQRLDYVPSSASREVRHGSDPAFAPGPRGLEPSGAPRPNLTQRFPCQAAARPGPDPAPEAEPERRGGPEGRAGLRRWRLASYLSGCHGEDGGDDGLPAPMEAEAYEDDVLAPGGRAPAGDLLPSAFRVPAAFPTKVPVPGPGSGGNGPEREGPEEPGLAKQDSFRSRLNPLVQRSSRLRSSLIFSTSQAEGAAGAAAATEKVQLLHKEQTVSETLGPGGEAVRSAASTKVAELLEKYKGPARDPGGGAGAITVASHSKAVVSQAWREEVAAPGAVGGERRSLESCLLDLRDSFAQQLHQEAERQPGAASLTAAQLLDTLGRSGSDRLPSRFLSAQSHSTSPQGLDSPLPLEGSGAHQVLHNESKGSPTSAYPERKGSPTPGFSTRRGSPTTGFIEQKGSPTSAYPERRGSPVPPVPERRSSPVPPVPERRGSLTLTISGESPKAGPAEEGPSGPMEVLRKGSLRLRQLLSPKGERRMEDEGGFPVPQENGQPESPRRLSLGQGDSTEAATEERGPRARLSSATANALYSSNLRDDTKAILEQISAHGQKHRAVPAPSPGPTHNSPELGRPPAAGVLAPDMSDKDKCSAIFRSDSLGTQGRLSRTLPASAEERDRLLRRMESMRKEKRVYSRFEVFCKKEEASSPGAGEGPAEEGTRDSKVGKFVPKILGTFKSKK
# B2: Protein FAM83C (Homo sapiens), Q9BQN1 (parent)
# chain: MFGGPGPGVLGAQGMAGPLRGRVEELKLPWWRESSPLVLRHSEAARLAADALLERGEAAYLRVISEERELPFLSALDVDYMTSHVRGGPELSEAQGQEASGPDRLSLLSEVTSGTYFPMASDIDPPDLDLGWPEVPQATGFSPTQAVVHFQRDKAKNIKDLLRFLFSQAHTVVAVVMDIFTDMELLCDLMEASSRRGVPVYLLLAQEHLRHFLEMCYKMDLNGEHLPNMRVRSTCGDTYCSKAGRRFTGQALEKFVLIDCEQVVAGSYSFTWLCSQAHTSMVLQLRGRIVEDFDREFRCLYAESQPVEGFCGGEDPLSPRALRPPPVALAFRPDVPSPTSSLPSSTSLSSIKQSPLMGRSSYLALPGGGDCSDTGVVSSSLGPARREASGQPSLHRQLSDPNHGSPPGLYRANLGKLGAYPWSQSSPALNHNSTSPLTLAVGSPLLPRSRPLLQFHRGAPALSRFPENGLPGSQEPSPLRGRWVPGTTLETVEEKEKKASPSQSRGQLDLLVPFPRAREVGDPDSGVTPNSGPLRPGEQAPEDRRLSPSQADSQLDLLSRALGTGGAPELGSLRPGDRALEDRRLSLNQSRGQSDLLMQYPKAQGSRVPLETNSSARPARRAPDERRQTLGHSQLDLITKFGPFRGEGPGPNGLPISSPARTAGAGSGDEKRLTLGHSKLDLITKYHQLHGARQGTEPGGPKGGHLNGGNSDLVRDEKRLTLGHSKLDLITKYNKSKFKQLRSRFES
# B3: Casein kinase I isoform alpha (Homo sapiens), P48729 (parent)
# chain: MASSSGSKAEFIVGGKYKLVRKIGSGSFGDIYLAINITNGEEVAVKLESQKARHPQLLYESKLYKILQGGVGIPHIRWYGQEKDYNVLVMDLLGPSLEDLFNFCSRRFTMKTVLMLADQMISRIEYVHTKNFIHRDIKPDNFLMGIGRHCNKLFLIDFGLAKKYRDNRTRQHIPYREDKNLTGTARYASINAHLGIEQSRRDDMESLGYVLMYFNRTSLPWQGLKAATKKQKYEKISEKKMSTPVEVLCKGFPAEFAMYLNYCRGLRFEEAPDYMYLRQLFRILFRTLNHQYDYTFDWTMLKQKAAQQAASSSGQGQQAQTPTGKQTDKTKSNMKGF
# partner: B1 chain
# B4: Casein kinase I isoform alpha (Homo sapiens), P48729 (parent)
# chain: B3 chain
# B5: Protein FAM83F (Homo sapiens), Q8NEG4 (parent)
# chain: MAESQLNCLDEAHVNEKVTEAQAAFYYCERRRAALEALLGGGEQAYRERLKEEQLRDFLSSPERQALRAAWSPYEDAVPAANARGKSKAKAKAPAPAPAESGESLAYWPDRSDTEVPPLDLGWTDTGFYRGVSRVTLFTHPPKDEKAPHLKQVVRQMIQQAQKVIAVVMDLFTDGDIFQDIVDAACKRRVPVYIILDEAGVKYFLEMCQDLQLTDFRIRNIRVRSVTGVGFYMPMGRIKGTLSSRFLMVDGDKVATGSYRFTWSSSHVDRNLLLLLTGQNVEPFDTEFRELYAISEEVDLYRQLSLAGRVGLHYSSTVARKLINPKYALVSGCRHPPGEMMRWAARQQREAGGNPEGQEEGASGGESAWRLESFLKDLVTVEQVLPPVEPIPLGELSQKDGRMVSHMHRDLKPKSREAPSRNGMGEAARGEAAPARRFSSRLFSRRAKRPAAPNGMASSVSTETSEVEFLTGKRPNENSSADISGKTSPSSAKPSNCVIS
# B6: Protein FAM83G (Homo sapiens), A6ND36 (parent)
# chain: MAFSQVQCLDDNHVNWRSSESKPEFFYSEEQRLALEALVARGRDAFYEVLKRENIRDFLSELELKRILETIEVYDPGSEDPRGTGPSQGPEDNGVGDGEEASGADGVPIEAEPLPSLEYWPQKSDRSIPQLDLGWPDTIAYRGVTRASVYMQPPIDGQAHIKEVVRKMISQAQKVIAVVMDMFTDVDIFKDLLDAGFKRKVAVYIIVDESNVKYFLHMCERACMHLGHLKNLRVRSSGGTEFFTRSATKFKGALAQKFMFVDGDRAVCGSYSFTWSAARTDRNVISVLSGQVVEMFDRQFQELYLMSHSVSLKGIPMEKEPEPEPIVLPSVVPLVPAGTVAKKLVNPKYALVKAKSVDEIAKISSEKQEAKKPLGLKGPALAEHPGELPELLPPIHPGLLHLERANMFEYLPTWVEPDPEPGSDILGYINIIDPNIWNPQPSQMNRIKIRDTSQASAQHQLWKQSQDSRPRPEPCPPPEPSAPQDGVPAENGLPQGDPEPLPPVPKPRTVPVADVLARDSSDIGWVLELPKEEAPQNGTDHRLPRMAGPGHAPLQRQLSVTQDDPESLGVGLPNGLDGVEEEDDDDYVTLSDQDSHSGSSGRGPGPRRPSVASSVSEEYFEVREHSVPLRRRHSEQVANGPTPPPRRQLSAPHITRGTFVGPQGGSPWAQSRGREEADALKRMQAQRSTDKEAQGQQFHHHRVPASGTRDKDGFPGPPRYRSAADSVQSSTRNAGPAMAGPHHWQAKGGQVPRLLPDPGSPRLAQNARPMTDGRATEEHPSPFGIPYSKLSQSKHLKARTGGSQWASSDSKRRAQAPRDRKDP
# B7: Casein kinase I isoform alpha (Homo sapiens), P48729 (parent)
# chain: B3 chain
# partner: B6 chain
# Variants of: B1
# Settings: with kc1a_human CSNK1A1, P48729
row,effect of a mutation on the interaction,Variant
1,disrupting interaction strength,F270A
2,disrupting interaction strength,D236A

# Variants of: B1
# Settings: with kc1e_human CSNK1E
row,effect of a mutation on the interaction,Variant
1,disrupting interaction strength,F270A
2,disrupting interaction strength,D236A

# Variants of: B2
# Settings: with kc1a_human CSNK1A1, P48729
row,effect of a mutation on the interaction,Variant
1,disrupting interaction strength,F293A
2,disrupting interaction strength,D259A

# Variants of: B3
# Settings: with fa83h_human FAM83H
row,effect of a mutation on the interaction,Variant
1,with no effect,N141A

# Variants of: B4
# Settings: with fa83e_human FAM83E
row,effect of a mutation on the interaction,Variant
1,with no effect,N141A

# Variants of: B4
# Settings: with fa83f_human FAM83F
row,effect of a mutation on the interaction,Variant
1,with no effect,N141A

# Variants of: B5
# Settings: with kc1a_human CSNK1A1, P48729
row,effect of a mutation on the interaction,Variant
1,disrupting interaction strength,F284A
2,disrupting interaction strength,D250A

# Variants of: B6
# Settings: with kc1a_human CSNK1A1, P48729
row,effect of a mutation on the interaction,Variant
1,disrupting interaction strength,F296A;F300A
2,disrupting interaction strength,F296A
3,with no effect,F300A

# Variants of: B6
# Settings: with kc1a_human CSNK1A1, P48729
# Remark: another data set of the same source
row,effect of a mutation on the interaction,Variant
1,disrupting interaction strength,F300A
2,disrupting interaction strength,D262A

# Variants of: B7
# Settings: with fa83g_human FAM83G
row,effect of a mutation on the interaction,Variant
1,with no effect,N141A
